According to US20160264664A1 (Ablynx, published 2016):
Changes are numbered by the printed parent chain.

T1: mouse P2X7 (mouse, UniProt Q9Z1M0 1-595)
T1 construct: on transfected CHO or Hek293 cells, or endogenous on Yac-1 cells; also called mP2X7; mouse purinoceptor P2X7
T1 sequence: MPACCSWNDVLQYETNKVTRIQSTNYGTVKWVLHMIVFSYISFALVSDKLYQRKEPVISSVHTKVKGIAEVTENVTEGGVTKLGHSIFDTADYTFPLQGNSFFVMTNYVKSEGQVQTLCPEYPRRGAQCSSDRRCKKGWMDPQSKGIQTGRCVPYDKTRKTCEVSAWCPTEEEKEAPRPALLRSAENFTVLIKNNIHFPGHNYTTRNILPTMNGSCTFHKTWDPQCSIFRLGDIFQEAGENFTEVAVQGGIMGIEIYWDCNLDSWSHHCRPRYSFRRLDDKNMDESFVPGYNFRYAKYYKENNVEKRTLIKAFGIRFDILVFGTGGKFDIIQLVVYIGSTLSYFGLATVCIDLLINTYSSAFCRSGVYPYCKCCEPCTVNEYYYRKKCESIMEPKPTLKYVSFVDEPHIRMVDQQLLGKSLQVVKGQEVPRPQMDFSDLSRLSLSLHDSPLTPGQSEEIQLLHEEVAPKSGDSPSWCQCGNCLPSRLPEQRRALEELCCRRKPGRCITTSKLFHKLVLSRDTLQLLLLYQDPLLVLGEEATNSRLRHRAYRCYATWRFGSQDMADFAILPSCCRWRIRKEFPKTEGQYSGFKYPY

T2: human P2X4 (human, UniProt Q99571 1-388)
T2 construct: whole, on cells; also called hP2X4
T2 sequence (looked up): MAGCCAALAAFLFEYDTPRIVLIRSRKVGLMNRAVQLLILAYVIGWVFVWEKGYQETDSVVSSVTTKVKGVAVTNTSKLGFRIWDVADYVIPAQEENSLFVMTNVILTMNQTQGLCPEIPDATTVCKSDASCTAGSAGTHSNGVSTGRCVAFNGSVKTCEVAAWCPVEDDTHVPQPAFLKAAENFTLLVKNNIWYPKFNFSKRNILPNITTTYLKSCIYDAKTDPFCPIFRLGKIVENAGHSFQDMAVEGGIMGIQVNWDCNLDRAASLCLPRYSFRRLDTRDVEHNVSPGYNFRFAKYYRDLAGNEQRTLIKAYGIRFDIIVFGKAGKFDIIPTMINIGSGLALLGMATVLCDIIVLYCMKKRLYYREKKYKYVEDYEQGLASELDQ

T3: human P2X7 (human, UniProt Q99572 1-595)
T3 construct: on transfected Hek293 cells; also called hP2X7
T3 sequence: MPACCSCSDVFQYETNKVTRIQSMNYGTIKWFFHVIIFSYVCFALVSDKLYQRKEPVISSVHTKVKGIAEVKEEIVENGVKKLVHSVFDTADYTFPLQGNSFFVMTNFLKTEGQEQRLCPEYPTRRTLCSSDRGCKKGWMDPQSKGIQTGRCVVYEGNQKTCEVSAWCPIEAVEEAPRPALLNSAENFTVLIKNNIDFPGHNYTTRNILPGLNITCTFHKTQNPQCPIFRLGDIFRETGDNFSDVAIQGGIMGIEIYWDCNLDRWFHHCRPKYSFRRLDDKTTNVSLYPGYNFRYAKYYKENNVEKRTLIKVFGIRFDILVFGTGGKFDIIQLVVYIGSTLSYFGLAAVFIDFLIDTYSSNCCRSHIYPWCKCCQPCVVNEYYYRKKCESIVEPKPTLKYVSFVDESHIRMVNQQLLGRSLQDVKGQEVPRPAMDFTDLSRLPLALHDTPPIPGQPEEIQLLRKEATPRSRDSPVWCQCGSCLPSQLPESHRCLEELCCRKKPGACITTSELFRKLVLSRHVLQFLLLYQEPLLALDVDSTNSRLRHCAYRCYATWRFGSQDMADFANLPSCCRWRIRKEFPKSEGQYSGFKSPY

B1: P2X7PMP8F5 (VHH)
VHH: EVQLVKSGGGLVQAGGSLRLSCAASGSFFRVNNMAWYRQAPGKQRELVADITRGDRTNYADSVNGRFTISRDNVRNTVYLQMNGLKPEDTAVYYCYARIELGPLVPRDYWGQGTQVTVSS
notes: family 5, 2; on phage or c-myc/His6-tagged in assays
B2: P2X7PMP8A11 (VHH)
VHH: B1 VHH with K6E, N83D, P103V
notes: as for B1
B3: P2X7PMP8H6 (VHH)
VHH: B1 VHH with K6E
notes: as for B1
B4: P2X7PMP8C12 (VHH)
VHH: B1 VHH with K6E, R98T, P103V, V105E
notes: family 5, 3; on phage or c-myc/His6-tagged in assays
B5: P2X7PMP8B12 (VHH)
VHH: B1 VHH with K6E, N33V, A40G, R98T, P103V, V105E
notes: as for B4
B6: P2X7PMP8H5 (VHH)
VHH: B1 VHH with V2M, K6E, S27N, N33T, S62T, V92A, P103V, V105E
notes: as for B1
B7: P2X7PMP8E6 (VHH)
VHH: B1 VHH with K6E, S17P, S27N, N33T, S62T, V92A, P103V, V105E
notes: as for B1
B8: P2X7PMP6A11 (VHH)
VHH: B1 VHH with K6E, S27N, N33T, S62T, V92A, P103V, V105E
notes: as for B1
B9: P2X7PMP8H4 (VHH)
VHH: B1 VHH with K6E, A40G, N83D, R98T, P103V
notes: as for B4
B10: P2X7PMP8H10 (VHH)
VHH: B1 VHH with K6E, A40G, R98T, P103V, V105E
notes: as for B4
B11: P2X7PMP8D10 (VHH)
VHH: B1 VHH with K6E, A14P, R98T, P103V, V105E
notes: as for B4
B12: P2X7PMP8B4 (VHH)
VHH: B1 VHH with K6E, S27N, N33T, S62T, G84S, V92A, P103V, V105E
notes: as for B1
B13: P2X7PMP1G6 (VHH)
VHH: EVQLVESGGGLVQAGGSLRLSCAASPGAFSSFNMGWFRQTPGKEREFVAATSWSDISTYYADSVKGRFTISRDNAKNTVTLEMNSLKPEDTAVYYCAAGYYRGGYLGYRLTLEGSYDVWGQGTQVTVSS
notes: family 15; on phage or c-myc/His6-tagged in assays
B14: P2X7PMP16D9 (VHH)
VHH: B13 VHH with A28T
notes: as for B13
B15: P2X7PMP18C1 (VHH)
VHH: EVQLVESGGDLVQPGGSLRLSCVASGFALEEHAIGWFRQAPGKEREGVSLSSYLGAAYYATSVKGRFTISRDNAKNTVTLQMNSLKPEDTAVYYCARGHFTYDDGRITIRSVDYWGKGTLVTVSS
notes: family 25; on phage or c-myc/His6-tagged in assays
B16: P2X7PMP18A7 (VHH)
VHH: B15 VHH with L54V, A57V, T79Y, T108S, Y114H
notes: as for B15
B17: P2X7PMP1A8 (VHH)
VHH: EVQLVESGGGLVQTGGSLRLSCAASGFTLDDYAIAWFRQAPGKEREGVSILSSIGKTFYADSVKDRFSITADGAKTTVFLQMNSLKPGDTAIYYCVAGHFVYNDGAISLNTARGSGFWGQGAQVTVSS
notes: family 2; on phage or c-myc/His6-tagged in assays
B18: P2X7PMP1C9 (VHH)
VHH: B17 VHH with G88E
notes: as for B17
B19: P2X7PMP20C9 (VHH)
VHH: B17 VHH with V63A, G88E, A122T
notes: as for B17
B20: P2X7PMP20B10 (VHH)
VHH: B17 VHH with G88E, A122T
notes: as for B17
B21: P2X7PMP5F1 (VHH)
VHH: EVQLVESGGGLVQAGGSLRLSCAASERTYSMGWFRQAPGKEREFVAGSGWDGIPTRYADSVKGRFTISRDNAKNTVSLQMSGLKPEDTAIYYCATGTSVYHYQYWGQGTQVTVSS
notes: family 3; on phage or c-myc/His6-tagged in assays
B22: P2X7PMP4G6 (VHH)
VHH: EVQLVESGGDVVQAGGSLRLSCLASGFTFDDYAIGWFRQAPGKEREGISCISSTGNVFYADSVKGRFTISSDKEKNTLYLQMNSLKPEDTAVYHCAAGHFTVDSGKVLLRTDVSSWGQGTQVTVSS
notes: family 1; on phage or c-myc/His6-tagged in assays
B23: P2X7PMP20E8 (VHH)
VHH: B22 VHH with E88G, V113I
notes: as for B22
B24: P2X7PMP16H8 (VHH)
VHH: B22 VHH with F67L, V113I
notes: as for B22

These binders were tested against T1, mouse P2X7 (assay: flow cytometry, periplasmic extract pre-incubated with anti-myc-FITC, on mP2X7-Hek293 cells;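 note: periplasmic extract diluted 10-fold and premixed 45 min at 4 °C with FITC anti-myc antibody, giving pseudo-bivalent Nanobodies, before binding to the cells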).
Protocol: Ten-fold diluted PE were pre-incubation with 0.5 μg anti-myc FITC-conjugated antibodies (AbD Serotec, cat no. MCA2200F) (creating pseudo-bivalent Nanobodies in order to increase binding strength) in 0.1 ml PBS/10% FCS for 45 minutes at 4° C. […] Alternatively, sequential staining of 10-fold diluted PE with anti-myc FITC-conjugated antibodies was done after incubation with the cells.

| Binder | MFI FACS (pre-Myc incubation) |
| --- | --- |
| B1 | 143 MFI |
| B2 | 17 MFI |
| B3 | 43 MFI |
| B4 | 89 MFI |
| B5 | 93 MFI |
| B6 | 24 MFI |
| B7 | 69 MFI |
| B8 | 53 MFI |
| B9 | 65 MFI |
| B10 | 94 MFI |
| B11 | 94 MFI |
| B12 | 71 MFI |
| B13 | 11 MFI |
| B14 | 53 MFI |
| B15 | 63 MFI |
| B16 | 69 MFI |
| B17 | 18 MFI |
| B18 | 19 MFI |
| B19 | 97 MFI |
| B20 | 85 MFI |

Each binder was assayed against T1, mouse P2X7 (assay: phage ELISA on fixed mP2X7-CHO vs untransfected CHO cells;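 note: phage culture supernatant diluted 10-fold, applied for 1 h to paraformaldehyde-fixed, BSA-blocked cells in 96-well plates, with bound phage read via HRP-linked anti-M13 antibody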).
Protocol: (§1) Sub-confluent cells were rinsed with PBS and fixed using 4% paraformaldehyde in PBS for 10 minutes at RT. Fixed cells were washed three times with PBS, and blocked with 2% BSA in PBS for 2 hours. Following blocking, 10-fold diluted culture supernatant containing phage was added and incubated for 1 hour. Cell-bound phage was detected via mouse anti-M13-HRP-conjugate (GE Healthcare, Cat nr. E2886). Rat mAb Hano43 was used as positive control.

| Binder | Fold Cho P2X7/wt (phage ELISA) |
| --- | --- |
| B1 | 16 fold |
| B13 | 12 fold |
| B14 | 7 fold |
| B15 | 18 fold |
| B16 | 14 fold |
| B17 | 20 fold |
| B19 | 11 fold |

These binders were tested against T1, mouse P2X7 (assay: cell-based or functional assay).

| Binder | ATP IC50 by 2 uM NB (head prints 'mM'; ligand titration at fixed Nanobody, CD62L shedding, Yac-1 cells) | IC50 (nM) against 20 uM NAD (CD62L shedding, Yac-1 cells) | IC50 (nM) against 100 uM ATP (CD62L shedding, Yac-1 cells) |
| --- | --- | --- | --- |
| B1 | 0.171 mM | 579 nM | 350 nM |

What follows are binders tested against T1, mouse P2X7 (assay: phage ELISA, mP2X7-CHO vs control CHO cells).
Protocol: as §1

| Binder | absorption ratio (ELISA) |
| --- | --- |
| B1 | 16 ratio |
| B2 | 11 ratio |
| B3 | 17 ratio |
| B4 | 28 ratio |
| B5 | 38 ratio |
| B6 | 12 ratio |
| B7 | 12 ratio |
| B8 | 17 ratio |
| B9 | 27 ratio |
| B10 | 19 ratio |
| B11 | 18 ratio |
| B12 | 13 ratio |
| B13 | 12 ratio |
| B14 | 7 ratio |
| B15 | 18 ratio |
| B16 | 14 ratio |
| B17 | 21 ratio |
| B18 | 6 ratio |
| B19 | 11 ratio |
| B20 | 8 ratio |

These binders were tested against T2, human P2X4 (assay: flow cytometry, Nanobody pre-incubated with anti-Myc-FITC).

| Binder | binding result |
| --- | --- |
| B1 | no binding (tested: 147 nM) |
| B13 | no binding (tested: 147 nM) |
| B14 | no binding (tested: 147 nM) |
| B15 | no binding (tested: 147 nM) |
| B16 | no binding (tested: 147 nM) |
| B17 | no binding (tested: 147 nM) |
| B19 | no binding (tested: 147 nM) |

The binders below were run against T3, human P2X7 in the same assay as above.

| Binder | binding result |
| --- | --- |
| B1 | no binding (tested: 147 nM) |
| B13 | no binding (tested: 147 nM) |
| B14 | no binding (tested: 147 nM) |
| B15 | no binding (tested: 147 nM) |
| B16 | no binding (tested: 147 nM) |
| B17 | no binding (tested: 147 nM) |
| B19 | no binding (tested: 147 nM) |

The binders below were run against T1, mouse P2X7 (assay: Table A-1 'P2X7 function'; screening on mP2X7-expressing cells).

| Binder | binding result |
| --- | --- |
| B21 | binds |
| B22 | binds |
| B23 | binds |
| B24 | binds |
